{"source": "patent US20110293526A1", "about": "“COMPOSITIONS AND METHODS TO MODULATE HAIR GROWTH” (University of Southern California, priority 2008, published 2011)", "key": {"[1]": {"details": "in published reports; cited from earlier work"}, "[2]": {"details": "DMSO; cited from earlier work"}, "competent telogen skin": {"tested_on": "competent telogen skin", "experiment": "Protein administration experiment: human BMP4-soaked beads implanted into competent telogen skin ahead of an anagen-spreading wave", "format": "in vivo, mice", "details": "for propagation of the anagen-spreading (hair propagation) wave around the beads: beads soaked in human BMP4 1 mg per ml, implanted in competent telogen skin of adult mice, protein replenished every 24 h, twelve days later, versus control BSA/albumin beads", "experimental": "Intracutaneous administration of exogenous protein was performed as follows. Affinity chromatography Affi-gel blue gel beads were obtained from Biorad. Beads were washed in 1×PBS, followed by drying. The beads were then re-suspended in 5 μl protein solution, either control (BSA 1 mg ml^−1) or experimental (human BMP4 1 mg per ml), at 4° C. for 30 min. Recombinant human BMP4 protein was obtained from R&D Systems. Reconstitution of the protein was performed in 4 mM HCl in 0.2% BSA as per the manufacturer's guidelines. Approximately 100 beads were introduced to the competent telogen skin of adult mice by means of a single puncture wound to the skin made by a 30 g syringe (insulin syringe). To replenish proteins, subsequent doses of 1.5 μl protein solution were microinjected to the site of the bead implantation every 24 h by means of a glass micro-needle until the tissue was harvested. After the anagen-spreading wave was noted to pass beyond the bead implantation sites (1 week in the case of FIGS. 2g, h), the skin was collected and inverted for photography. This allows the study of the anagen-wave-spreading dynamics around the control and human BMP4 beads.\nFinally, it was tested whether a direct local delivery of BMP protein can convert competent telogen status to refractory in normal mice. Human-BMP4-soaked beads were implanted into competent telogen skin ahead of an anagen-spreading wave (see Methods in Botchkarev et al. (2001) FASEB J. 15:2205-14). […] Thus, the level of BMP activity can indeed explain the functional status (refractory versus competent) of a skin region."}}, "data": [{"molecule": "c1cc(-c2cnn3cc(-c4ccc(OCCN5CCCCC5)cc4)cnc23)ccn1", "note": "[Dorsomorphin]", "values": [{"measurement": "toxicity", "setting": "[1]", "value": "low toxicity"}, {"measurement": "solubility", "setting": "[2]", "value": "soluble in DMSO"}]}, {"molecule": "human BMP4: Recombinant human BMP4 protein obtained from R&D Systems (protein, UniProt P12644 293-408, looked up) Bone morphogenetic protein 4: SPKHHSQRARKKNKNCRRHSLYVDFSDVGWNDWIVAPPGYQAFYCHGDCPFPLADHLNSTNHAIVQTLVNSVNSSIPKACCVPTELSAISMLYLDEYDKVVLKNYQEMVVEGCGCR", "values": [{"measurement": "propagation of the anagen-spreading (hair propagation) wave around the beads", "setting": "competent telogen skin", "value": "prevented the propagation of the wave around the beads"}, {"measurement": "propagation of the anagen-spreading (hair propagation) wave around the beads", "setting": "competent telogen skin; listed as Human-BMP4", "value": "caused hair propagation wave (solid arrow) to go around them, creating a new telogen domain"}, {"measurement": "propagation of the anagen-spreading (hair propagation) wave around the beads", "setting": "competent telogen skin; listed as hBMP4", "value": "caused hair propagation wave (solid arrowed curve) to go around them, creating a new telogen domain"}, {"measurement": "status of treated skin and hair regeneration after intracutaneous delivery", "setting": "competent telogen skin; delivered intracutaneously via single glass microneedle during competent telogen phase", "value": "rendered treated skin refractory and prevented hair regeneration"}]}]}
